Data published in patent publication US20250296984A1, “THERAPEUTIC AND DIAGNOSTIC AGENTS AND USES THEREOF” (priority 2022, published 2025).

Experiments:
[1] = system: HEKPhoenix_Mock transfected cells; test: Flow cytometry, HEKPhoenix Mock transfected cells; format: binding, human; settings: antibody concentration 6.76 nM, Myc tag detection
Method: (§1) ii. Materials: • Cells: HEK Phoenix Ampho (ATCC-CRL-3213), p 21. • Staining buffer: PBS with 1% BSA, 2 mM EDTA. • Plasmid: Encoding US28 protein from different HCMV strains: DB; TB40/E; Merlin; and VHL/E. • Blocking: Human TruStain FcX™ (ref 422302). • Live Dead: Invitrogen™ eBioscience™ Fixable Viability Dye eFluor™ 780 (ref 13539140). • Primary antibodies: 7B1F3 (6.76 nM=1 μg/ml); hum7B1F3 (6.76 nM=1 μg/ml).
(§2) The day before transfection, HEK Ampho cells were seeded in a 1×6-well plate with 1×10^6 live cells/well, 2 mL/well. Seeded 4 wells for HEKPhoenix_plasmids. Seeded 2 wells for HEKPhoenix_Mock transfected. Incubated the cells in a 37° C. incubator with >80% relative humidity and 5% CO2.
(§3) After 1 day, cells will have adhered and reached >60% confluency. Removed 700 uL media from each well prior to transfection. Allowed X-tremeGENE™ HP DNA Transfection Reagent, DNA and diluent Opti-MEM® I Reduced Serum Medium to warm to +15° C. to +25° C., and vortexed gently. Placed 100 μL diluent in a sterile tube for each condition. Added 1 μg plasmid DNA. Pipetted gently to mix (DNA was not added for the mock condition): • DB (683.3 ng/μL): 1.46 μL • TB40/E (742.05 ng/μL): 1.35 μL • Merlin (70.78 ng/μL): 14.13 μL • VHL/E (51.87 ng/μL): 19.28 μL
(§4) Added 3 μL X-tremeGENE™ HP DNA Transfection Reagent to the diluted DNA. (3:1 ratio of reagent to DNA). Pipetted gently to mix, then: • 1. […]

[2] = molecular target: T1, US28 protein from HCMV strain TB40/E on HEK Phoenix Ampho cells (Human cytomegalovirus, UniProt P69332, A8T/D15E/E18L/V24T); test: Flow cytometry, HEK Phoenix Ampho cells transfected with US28 (TB40/E); format: binding; settings: mock subtracted, fold-difference minus 1, sign = increase or decrease
T1 construct: expressed in transfected cells; host or cells: HEK Phoenix Ampho (ATCC-CRL-3213)
Method: as §1, §2, §3, §4

[3] = molecular target: T2, US28 protein from HCMV strain Merlin on HEK Phoenix Ampho cells (Human cytomegalovirus, UniProt P69332, S330G); test: Flow cytometry, HEK Phoenix Ampho cells transfected with US28 (Merlin); format: binding; settings: mock subtracted, fold-difference minus 1, sign = increase or decrease
T2 construct: expressed in transfected cells; host or cells: HEK Phoenix Ampho (ATCC-CRL-3213)
Method: as §1, §2, §3, §4

[4] = molecular target: T3, US28 protein from HCMV strain DB on HEK Phoenix Ampho cells (Human cytomegalovirus, UniProt P69332, D170N/D19A); test: Flow cytometry, HEK Phoenix Ampho cells transfected with US28 (DB); format: binding; settings: mock subtracted, fold-difference minus 1, sign = increase or decrease
T3 construct: expressed in transfected cells; host or cells: HEK Phoenix Ampho (ATCC-CRL-3213)
Method: as §1, §2, §3, §4

B1: 7B1F3-Myc: 7B1F3 labelled with a Myc tag (antibody, V domains shown)
VH: EVQLQQSGAELAKPGASVKMSCKASGYTFTNYWMHWVKQRPGQGLEWIGYVNPRTGYTEYNQKFKDKATLTADKSSRTAYMQLSSLTSEDSAVYSCARILNGTGFAYWGQGTLVTVSA
VL: DIVLTQSPSSLTVSVGEKFTMSCKSSQSLLYSSNQKNYLAWYQQKPGQSPKLLIYWASTRESGVPDRFTGSGSGTDFTLAISSVKPEDLAIYYCQQYYSFPLTFGAGTKLEIK
- Preliminary Binding Data, Mock [1]: 0.06
- Variation in binding, relative to determined binding to US28 as encoded by VHL/E; TB40/E [2]: +0.14
- Variation in binding, relative to determined binding to US28 as encoded by VHL/E; Merlin [3]: +0.21
- Variation in binding, relative to determined binding to US28 as encoded by VHL/E; DB [4]: +0.64
